This assay addresses Cav3.1-GFP wild type (human) (UniProt O43497).
Sequence of UniProt O43497 (O43497 whole entry): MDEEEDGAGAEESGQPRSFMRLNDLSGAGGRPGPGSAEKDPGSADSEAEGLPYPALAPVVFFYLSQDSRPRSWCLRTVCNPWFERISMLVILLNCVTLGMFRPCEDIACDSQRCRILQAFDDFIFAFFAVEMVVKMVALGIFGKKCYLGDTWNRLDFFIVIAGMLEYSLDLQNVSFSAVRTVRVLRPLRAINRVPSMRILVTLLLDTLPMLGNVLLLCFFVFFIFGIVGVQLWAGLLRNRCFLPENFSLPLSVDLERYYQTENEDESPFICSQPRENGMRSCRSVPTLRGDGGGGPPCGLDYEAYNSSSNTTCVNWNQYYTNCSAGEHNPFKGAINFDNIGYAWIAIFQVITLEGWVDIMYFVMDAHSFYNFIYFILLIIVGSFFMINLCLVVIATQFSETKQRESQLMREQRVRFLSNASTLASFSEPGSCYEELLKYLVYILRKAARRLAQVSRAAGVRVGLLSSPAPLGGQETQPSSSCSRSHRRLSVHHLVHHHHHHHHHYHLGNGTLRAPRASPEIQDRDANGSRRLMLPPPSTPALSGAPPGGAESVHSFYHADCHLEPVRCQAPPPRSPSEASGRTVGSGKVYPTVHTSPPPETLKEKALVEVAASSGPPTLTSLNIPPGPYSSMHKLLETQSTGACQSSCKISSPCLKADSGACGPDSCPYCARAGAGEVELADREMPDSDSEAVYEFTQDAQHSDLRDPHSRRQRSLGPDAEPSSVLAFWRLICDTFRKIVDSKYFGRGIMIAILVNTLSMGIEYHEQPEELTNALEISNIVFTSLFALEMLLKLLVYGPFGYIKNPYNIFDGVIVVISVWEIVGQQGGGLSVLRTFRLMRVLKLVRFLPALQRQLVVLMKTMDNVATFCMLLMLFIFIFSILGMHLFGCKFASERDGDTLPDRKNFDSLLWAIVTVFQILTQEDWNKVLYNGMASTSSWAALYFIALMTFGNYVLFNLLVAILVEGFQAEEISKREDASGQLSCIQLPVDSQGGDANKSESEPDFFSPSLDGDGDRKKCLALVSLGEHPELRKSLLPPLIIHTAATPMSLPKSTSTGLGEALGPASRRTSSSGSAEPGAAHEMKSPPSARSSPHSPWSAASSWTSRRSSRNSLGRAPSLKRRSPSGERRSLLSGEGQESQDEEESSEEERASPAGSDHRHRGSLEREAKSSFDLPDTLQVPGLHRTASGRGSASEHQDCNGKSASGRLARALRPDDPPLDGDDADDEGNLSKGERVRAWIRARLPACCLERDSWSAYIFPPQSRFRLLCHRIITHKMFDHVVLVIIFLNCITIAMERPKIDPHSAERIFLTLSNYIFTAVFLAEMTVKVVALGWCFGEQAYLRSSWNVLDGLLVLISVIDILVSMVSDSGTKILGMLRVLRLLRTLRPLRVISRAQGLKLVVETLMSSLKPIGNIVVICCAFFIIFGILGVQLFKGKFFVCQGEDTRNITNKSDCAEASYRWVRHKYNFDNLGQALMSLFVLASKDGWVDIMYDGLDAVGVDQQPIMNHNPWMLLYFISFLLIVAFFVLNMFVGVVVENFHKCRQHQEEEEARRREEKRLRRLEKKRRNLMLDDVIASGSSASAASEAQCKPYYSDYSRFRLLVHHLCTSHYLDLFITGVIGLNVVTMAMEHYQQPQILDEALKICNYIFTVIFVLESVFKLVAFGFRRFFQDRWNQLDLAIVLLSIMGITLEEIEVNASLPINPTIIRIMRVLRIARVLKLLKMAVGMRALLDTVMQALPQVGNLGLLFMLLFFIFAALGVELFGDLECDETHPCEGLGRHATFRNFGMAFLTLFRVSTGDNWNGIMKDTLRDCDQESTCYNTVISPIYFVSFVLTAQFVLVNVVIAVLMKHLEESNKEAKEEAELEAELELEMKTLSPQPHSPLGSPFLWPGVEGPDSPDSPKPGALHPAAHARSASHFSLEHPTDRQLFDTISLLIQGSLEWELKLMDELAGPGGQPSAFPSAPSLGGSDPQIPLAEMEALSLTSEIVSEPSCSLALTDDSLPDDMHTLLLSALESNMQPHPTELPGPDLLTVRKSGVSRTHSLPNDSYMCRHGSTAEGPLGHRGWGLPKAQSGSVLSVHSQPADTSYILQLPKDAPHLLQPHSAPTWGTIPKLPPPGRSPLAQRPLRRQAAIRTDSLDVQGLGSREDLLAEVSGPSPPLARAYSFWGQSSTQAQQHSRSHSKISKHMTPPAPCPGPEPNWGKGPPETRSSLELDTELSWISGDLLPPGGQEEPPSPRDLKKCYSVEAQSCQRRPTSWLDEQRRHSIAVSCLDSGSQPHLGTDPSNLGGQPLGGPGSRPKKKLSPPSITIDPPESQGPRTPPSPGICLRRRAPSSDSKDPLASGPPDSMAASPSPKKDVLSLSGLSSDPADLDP

As for “spectrin αII (SPTAN1), tsA-201 cells, Q13813 1-2472”, the cell surface expression of Cav3.1 (surface biotinylation, tsA-201 cells) in the presence of the cell permeant Tat-Cav3.1-CT disruptor peptide against a scrambled Tat peptide is 40%.

Values taken from publication PMC5930937.
